Read-outs that look alike come from different tables or passages of the source.
T1: human LAG3 expressed on HEK293A cells (human, UniProt P18627 23-525)
T1 construct: whole, on cells; also called HEK293A/human LAG3
T1 sequence (looked up): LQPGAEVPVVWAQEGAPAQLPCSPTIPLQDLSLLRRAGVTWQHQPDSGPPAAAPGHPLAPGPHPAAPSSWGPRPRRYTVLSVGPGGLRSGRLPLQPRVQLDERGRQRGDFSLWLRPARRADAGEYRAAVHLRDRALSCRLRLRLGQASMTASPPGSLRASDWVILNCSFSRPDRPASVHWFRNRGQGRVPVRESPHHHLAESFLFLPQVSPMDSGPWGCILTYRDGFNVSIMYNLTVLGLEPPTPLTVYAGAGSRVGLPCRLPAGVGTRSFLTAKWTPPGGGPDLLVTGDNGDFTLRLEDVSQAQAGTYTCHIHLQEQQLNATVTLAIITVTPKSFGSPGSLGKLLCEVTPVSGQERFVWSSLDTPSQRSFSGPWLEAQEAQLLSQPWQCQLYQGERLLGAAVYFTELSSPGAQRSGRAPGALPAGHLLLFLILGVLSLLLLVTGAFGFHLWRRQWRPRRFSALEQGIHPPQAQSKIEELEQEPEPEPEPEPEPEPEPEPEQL

T2: monkey (rhesus) LAG3 expressed on HEK293A cells (monkey (rhesus), UniProt A0A5F8A874 23-533)
T2 construct: whole, on cells; also called HEK293A/rh LAG3
T2 sequence: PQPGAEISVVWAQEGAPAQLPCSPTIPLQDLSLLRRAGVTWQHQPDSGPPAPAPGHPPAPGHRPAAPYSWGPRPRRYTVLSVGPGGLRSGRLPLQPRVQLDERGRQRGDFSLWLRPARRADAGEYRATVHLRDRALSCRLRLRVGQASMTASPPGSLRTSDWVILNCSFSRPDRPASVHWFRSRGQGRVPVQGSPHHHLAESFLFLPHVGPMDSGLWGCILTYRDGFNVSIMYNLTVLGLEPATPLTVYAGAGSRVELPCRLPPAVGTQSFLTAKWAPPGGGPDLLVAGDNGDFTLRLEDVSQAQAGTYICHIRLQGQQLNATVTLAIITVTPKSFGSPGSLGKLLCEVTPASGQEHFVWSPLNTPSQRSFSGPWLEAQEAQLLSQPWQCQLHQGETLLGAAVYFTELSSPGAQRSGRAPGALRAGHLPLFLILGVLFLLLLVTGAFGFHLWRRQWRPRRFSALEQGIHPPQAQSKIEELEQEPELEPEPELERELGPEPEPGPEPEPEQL

T3: mouse LAG3 expressed on HEK293A cells (mouse, UniProt Q61790 24-521)
T3 construct: whole, on cells; also called HEK293A/mouse LAG3
T3 sequence (looked up): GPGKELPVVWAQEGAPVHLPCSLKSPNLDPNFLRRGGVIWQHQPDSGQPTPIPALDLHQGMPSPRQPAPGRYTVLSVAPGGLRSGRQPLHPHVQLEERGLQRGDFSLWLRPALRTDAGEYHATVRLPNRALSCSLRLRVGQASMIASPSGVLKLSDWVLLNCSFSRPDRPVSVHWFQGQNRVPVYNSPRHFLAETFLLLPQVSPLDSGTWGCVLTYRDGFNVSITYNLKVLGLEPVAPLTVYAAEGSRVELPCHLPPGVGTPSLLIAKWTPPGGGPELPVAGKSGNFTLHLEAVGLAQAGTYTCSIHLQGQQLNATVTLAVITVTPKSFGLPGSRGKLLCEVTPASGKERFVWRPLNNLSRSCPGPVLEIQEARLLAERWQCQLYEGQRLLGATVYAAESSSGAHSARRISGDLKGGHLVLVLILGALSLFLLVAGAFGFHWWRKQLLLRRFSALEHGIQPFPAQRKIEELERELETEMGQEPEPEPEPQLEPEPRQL

T4: recombinant human LAG3(ECD)-his (Sino Biological, Cat #: 16498-H08H) (human, UniProt P18627 23-450)
T4 construct: extracellular domain; Bought protein; not shown: his tag
T4 sequence (looked up): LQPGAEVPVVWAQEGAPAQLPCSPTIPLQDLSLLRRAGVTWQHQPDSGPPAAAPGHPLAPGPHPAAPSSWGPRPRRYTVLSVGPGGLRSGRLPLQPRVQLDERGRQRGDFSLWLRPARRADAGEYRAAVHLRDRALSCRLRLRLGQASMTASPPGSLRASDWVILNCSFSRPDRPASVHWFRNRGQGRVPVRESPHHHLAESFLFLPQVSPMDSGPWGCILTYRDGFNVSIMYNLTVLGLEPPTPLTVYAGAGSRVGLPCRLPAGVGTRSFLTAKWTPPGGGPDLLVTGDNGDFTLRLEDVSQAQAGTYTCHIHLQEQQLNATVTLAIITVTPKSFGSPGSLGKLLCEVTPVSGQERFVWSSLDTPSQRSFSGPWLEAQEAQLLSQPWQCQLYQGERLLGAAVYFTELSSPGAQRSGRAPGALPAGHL

T5: Human PBMC
T5 chain: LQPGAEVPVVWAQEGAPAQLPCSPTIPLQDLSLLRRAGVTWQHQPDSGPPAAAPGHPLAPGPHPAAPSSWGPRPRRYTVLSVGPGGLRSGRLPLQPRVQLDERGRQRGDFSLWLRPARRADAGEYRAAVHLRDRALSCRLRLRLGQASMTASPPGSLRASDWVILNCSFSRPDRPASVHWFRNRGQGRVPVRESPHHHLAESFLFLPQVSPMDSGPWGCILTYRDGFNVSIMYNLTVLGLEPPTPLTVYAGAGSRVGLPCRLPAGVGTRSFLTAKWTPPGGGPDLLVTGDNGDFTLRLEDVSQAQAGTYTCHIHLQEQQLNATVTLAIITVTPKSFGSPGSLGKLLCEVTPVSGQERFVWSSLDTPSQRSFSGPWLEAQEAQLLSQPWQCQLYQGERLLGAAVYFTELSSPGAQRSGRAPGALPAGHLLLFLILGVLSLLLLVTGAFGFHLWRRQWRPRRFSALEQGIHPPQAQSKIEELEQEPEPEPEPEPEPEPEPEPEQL


Experiments:
[1] = molecular target: T1, human LAG3 expressed on HEK293A cells; assay: FACS on HEK293A cells expressing human LAG3
[2] = molecular target: T2, monkey (rhesus) LAG3 expressed on …; assay: FACS on HEK293A cells expressing rhesus LAG3
[3] = molecular target: T3, mouse LAG3 expressed on HEK293A cells; assay: FACS on HEK293A cells expressing mouse LAG3
[4] = molecular target: T4, recombinant human LAG3(ECD)-his (Sino …); assay: SPR (BIAcore 8K), human LAG3(ECD)-his coupled to chip, antibody injected, 1:1 Langmuir
Protocol: (§1) Serially diluted antibodies at concentrations ranging from 0.3 μM to 10 μM were injected into the SPR running buffer (HBS-EP buffer, pH7.4, GE Life Sciences; US; Cat #: BR-1006-69) at 30 μL/minute. The binding capacities were calculated with the RUs of blank controls subtracted. The association rate (Ka) and dissociation rate (Kd) were calculated using the one-to-one Langmuir binding model (BIA Evaluation Software, GE Life Sciences). The equilibrium dissociation constant K_D was calculated as the kd/ka ratio.

[5] = molecular target: T4, recombinant human LAG3(ECD)-his (Sino …); assay: SPR (BIAcore 8K), human LAG3(ECD)-his coupled to chip, antibody injected, 1:1 Langmuir; printed a second time as 'Ka values', read as Kd
Protocol: as §1

[6] = molecular target: T3, mouse LAG3 expressed on HEK293A cells; assay: FACS on HEK293A cells expressing mouse LAG3; remark: listed apart in the source
Human PBMC = molecular target: T5, Human PBMC; assay: FACS on activated human PBMC
Protocol: (§2) Briefly, 10^5 HEK293A cells in 50 μl PBS buffers were seeded into each well of the 96-well plates and then added with 50 μl of serially diluted anti-LAG3 antibodies (5-fold dilution, starting from 40 μg/ml). After incubated at 4° C. for 1 hour, plates were washed 3 times with PBST. Then, an APC coupled Goat Anti-Mouse IgG (BioLegend, US, Cat #: 405308) diluted 500× was added to the plates. After incubation at 4° C. for 1 hour, the plates were washed with PBS for 3 times and then cell fluorescence was monitored using a FACS machine (BD).
(§3) Further, the binding activities of the two antibodies to actived human PBMCs were investigated by FACS. Briefly, human PBMCs were collected by density gradient centrifugation and then re-suspended in the complete medium (RPMI medium+10% FBS+ human IL-2 (20 IU/ml, R&D, Cat #: 202-IL)+ Dynabeads™ Human T-Activator CD3/CD28 (Gibco, Cat #: 11132D)) at 37° C. under 5% CO_2 in a humidified incubator for 2 days to get activated T cells. The cells were then collected and tested by FACS as described in Example 6.

[7] = molecular target: T4, recombinant human LAG3(ECD)-his (Sino …); assay: ELISA on coated human LAG3(ECD)-his
Protocol: The wells were blocked with 200 µl of blocking buffer (PBS containing 1% BSA, 1% goat serum, and 0.05% Tween 20) for 2 hours at room temperature, and then 100 µl of serially diluted anti-LAG3 antibodies (starting from 40 µg/ml) were added to each well and incubated for 1 hour at RT. Plates were washed for 3 times with PBST (PBS+0.05% Tween 20), added with Goat-anti-mouse IgG-HRP (Sigma, US, Cat #: A9309-1 ml) diluted 5000×, and incubated for 1 hour at RT. Plates were developed with freshly prepared Ultra-TMB (BD, US, Cat #:555214) for 5 minutes at RT. Absorbance was read on a SpectraMaxR i3X (Molecular Devies, US) at 450 nm.
as §3

[8] = molecular target: T6, monkey LAG3(ECD)-mFc protein (ACRO, Cat #: LA3-052A0) (monkey); assay: SPR (BIAcore 8K), monkey LAG3(ECD)-mFc coupled to chip, antibody injected, 1:1 Langmuir
T6 construct: extracellular domain; Bought protein
Protocol: as §1

[9] = molecular target: T2, monkey (rhesus) LAG3 expressed on …; assay: FACS on HEK293A cells expressing rhesus LAG3; remark: listed apart in the source
Protocol: as §2, §3

| EC50 (read off the curve) [1] [µg/mL] | EC50 (read off the curve) [2] [µg/mL] | binding result [3] | Kd [4] [pM] | kon [4] [M⁻¹ s⁻¹] | koff [5] [s⁻¹] | binding result [6] | EC50 (read off the curve) (Human PBMC) [µg/mL] | EC50 (read off the curve) [7] [µg/mL] | Kd [8] [pM] | EC50 (read off the curve) [9] [µg/mL] | Binder |
| --- | --- | --- | --- | --- | --- | --- | --- | --- | --- | --- | --- |
| ~0.05 | ~0.4 | no binding | 833 | 403000 | 0.000335 |  |  |  |  |  | chimeric 101F4 antibody (antibody, human IgG4 S228P, kappa, V domains shown, Mouse variable regions on human IgG4 (S228P)/kappa constant regions; also called 101F4-CM) VH: EVQLEQSGAELVRPGASVTLSCKASGYTFTDYEMHWVKQTPVYGLEWMGAIDPETGGIVYNQRFKGKAILTADKSSSTAYMELRSLTSEDSAVYYCTGAGWGYWGQGTTLTVSS VL: DIVITQSPSSMYASLGERVTITCKASQDINSYLSWFQQKPGKSPKTLIYRANRLLDGVPSRFSGSGSGQDYSLTISSLEFEDMGLYYCLQYDEFPFTFGSGTKLEIKR |
| ~0.09 |  |  | 737 | 93900 |  | no binding |  |  |  |  | chimeric 134G10 antibody (antibody, human IgG4 S228P, kappa, V domains shown, Mouse variable regions on human IgG4 (S228P)/kappa constant regions; also called 134G10-CM) VH: EVQLVESGGDLVKPGGSLKLSCAASGFTFSSFGMSWVRQTPDKRLEWVGIISSGGTYTFYPDILKGRFTISRDNAKNTLYLQMSSLKSEDTAMYYCARVYSDYDGRFDYWGQGTTLTVSS VL: DIVMTQSPSSLSVSAGEKVTMNCKSSQSLLNSGNQKNYLAWYQQKPGQPPKLLIYGASTRESGVPDRFTGSGSGTDFTLTISSVQAEDLAVYYCQNDHSYPLTFGAGTKLELKR |
|  |  |  | 2050 | 104000 | 0.000214 |  | ~0.02 | ~1 | 980 | ~0.8 | humanized (with affinity maturation) antibody 101F4H2L2-8 (antibody, human IgG4 S228P, kappa, V domains shown) VH: QVQLVQSGAEVKKPGASVKVSCKVSGYTFTDYEMHWVRQAPGKGLEWMGAIDPETGGIVYNQRFKGRVTLTADTSTDTAYMELSSLRSEDTAVYYCATTGWNDWGQGTTVTVSS VL: DIQMTQSPSSLSASVGDRVTITCKASQDINSYLSWYQQKPGKAPKLLIYRANRLLDGVPSRFSGSGSGQDYTLTISSLQPEDFATYYCQQYDEFPFTFGQGTKLEIKR |

— patent US10946092 (BEIJING MABWORKS BIOTECH, dated 2021)
